From article PMC7322189 (iScience, 2020)

B1: Recombinant His-Bem1p (natural protein, yeast, UniProt P29366 1-551, looked up)
chain: MLKNFKLSKRDSNGSKGRITSADISTPSHDNGSVIKHIKTVPVRYLSSSSTPVKSQRDSSPKNRHNSKDITSPEKVIKAKYSYQAQTSKELSFMEGEFFYVSGDEKDWYKASNPSTGKEGVVPKTYFEVFDRTKPSSVNGSNSSSRKVTNDSLNMGSLYAIVLYDFKAEKADELTTYVGENLFICAHHNCEWFIAKPIGRLGGPGLVPVGFVSIIDIATGYATGNDVIEDIKSVNLPTVQEWKSNIARYKASNISLGSVEQQQQQSITKPQNKSAKLVDGELLVKASVESFGLEDEKYWFLVCCELSNGKTRQLKRYYQDFYDLQVQLLDAFPAEAGKLRDAGGQWSKRIMPYIPGPVPYVTNSITKKRKEDLNIYVADLVNLPDYISRSEMVHSLFVVLNNGFDREFERDENQNNIKTLQENDTATFATASQTSNFASTNQDNTLTGEDLKLNKKLSDLSLSGSKQAPAQSTSGLKTTKIKFYYKDDIFALMLKGDTTYKELRSKIAPRIDTDNFKLQTKLFDGSGEEIKTDSQVSNIIQAKLKISVHDI
B2: Recombinant His-GIV-CT (C terminus of GIV/Girdin), wild type (domain or fragment)
chain: SETLESRHHKIKTGSPGSEVVTLQQFLEESNKLTSVQIKSSSQENLLDEVMKSLSVSSDFLGKDKPVSCGLARSVSGKTPGDFYDRRTTKPEFLRPGPRKTEDTYFISSAGKPTPGTQGKIKLVKESSLSRQSKDSNPYATLPRASSVISTAEGTTRRTSIHDFLTKDSRLPISVDSPPAAADSNTTAASNVDKVQESRNSKSRSREQQSS

Tests used:
GST-Exo70p (yeast Exo70) = GST-Exo70p (yeast Exo70) (yeast, UniProt P19658 1-623); assay: pull-down
Sequence of GST-Exo70p (yeast Exo70) (P19658 whole entry): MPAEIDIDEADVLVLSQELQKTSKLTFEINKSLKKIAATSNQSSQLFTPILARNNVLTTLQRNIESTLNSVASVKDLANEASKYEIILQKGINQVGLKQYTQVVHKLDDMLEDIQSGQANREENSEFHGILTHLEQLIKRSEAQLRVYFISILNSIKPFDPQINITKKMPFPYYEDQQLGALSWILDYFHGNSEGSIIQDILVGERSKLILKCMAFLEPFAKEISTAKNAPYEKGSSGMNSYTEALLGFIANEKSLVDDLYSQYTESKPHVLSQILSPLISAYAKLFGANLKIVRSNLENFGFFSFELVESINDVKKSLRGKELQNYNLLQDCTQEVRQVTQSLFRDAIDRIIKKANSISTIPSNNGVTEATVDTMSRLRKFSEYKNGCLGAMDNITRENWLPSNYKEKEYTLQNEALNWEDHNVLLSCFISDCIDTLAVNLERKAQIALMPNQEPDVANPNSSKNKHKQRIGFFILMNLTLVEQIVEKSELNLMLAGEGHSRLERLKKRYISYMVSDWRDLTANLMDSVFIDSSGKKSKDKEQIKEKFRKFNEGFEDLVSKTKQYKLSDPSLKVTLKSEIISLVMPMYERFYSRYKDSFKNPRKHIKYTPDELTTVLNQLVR

GST-hExo70 (human Exo70) = GST-hExo70 (human Exo70) (human, UniProt Q9UPT5 1-735); assay: pull-down
Sequence of GST-hExo70 (human Exo70) (Q9UPT5 whole entry): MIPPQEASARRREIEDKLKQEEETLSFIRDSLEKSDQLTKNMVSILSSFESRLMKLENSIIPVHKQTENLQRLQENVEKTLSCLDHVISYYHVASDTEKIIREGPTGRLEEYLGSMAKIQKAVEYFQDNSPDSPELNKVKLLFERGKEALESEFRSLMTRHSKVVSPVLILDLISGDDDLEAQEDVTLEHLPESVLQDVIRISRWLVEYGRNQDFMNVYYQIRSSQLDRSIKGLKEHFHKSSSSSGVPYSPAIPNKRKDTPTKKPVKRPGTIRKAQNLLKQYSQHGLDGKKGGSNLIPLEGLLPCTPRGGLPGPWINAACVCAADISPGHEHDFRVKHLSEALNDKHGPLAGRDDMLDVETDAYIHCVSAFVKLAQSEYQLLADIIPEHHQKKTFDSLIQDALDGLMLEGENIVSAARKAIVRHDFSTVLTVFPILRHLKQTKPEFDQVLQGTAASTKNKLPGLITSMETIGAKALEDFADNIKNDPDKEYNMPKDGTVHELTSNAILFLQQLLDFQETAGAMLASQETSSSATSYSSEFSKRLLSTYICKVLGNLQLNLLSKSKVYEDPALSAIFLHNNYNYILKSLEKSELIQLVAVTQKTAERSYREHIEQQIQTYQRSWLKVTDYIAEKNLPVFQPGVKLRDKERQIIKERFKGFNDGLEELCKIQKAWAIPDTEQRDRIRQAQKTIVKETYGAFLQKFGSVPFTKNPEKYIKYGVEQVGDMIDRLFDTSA

Row | Binder | fold binding against human Exo70 (GST-Exo70p (yeast Exo70)) [fold] | fold binding against yeast Exo70p (GST-hExo70 (human Exo70)) [fold]
1 | B1 | 2 | 
2 | B2 |  | 4
